The text below walks through data of patent US11845989B2, “Treatment of ophthalmic conditions with angiopoietin-like 7 (ANGPTL7) inhibitors” (Regeneron Pharmaceuticals, Inc., priority 2019, dated 2023).

The test system of assay [1] is mouse eyes. The assay can be described thus: Intracameral injection of ANGPTL7 protein in mice, IOP measured over time. The format is in vivo. On the procedure: (§1) Isoflurane anesthetized IOPs were measured as previously described. For IOP measurements, mice were anesthetized before IOP was measured in both eyes using a TonoLab rebound tonometer (Colonial Medical Supply, Franconia, N H). IOP measurements for both eyes were completed in 3-5 minutes. IOP in each eye was measured before start of Angptl7 injections and every day afterwards for six days.
A 33-gauge needle with a glass microsyringe (5-4 volume) (Hamilton Company) was used. Before and during injection, mice were anesthetized with isoflurane (2.5%) containing oxygen (0.8 L/min). For topical anesthesia, both eyes received one to two drops of 0.5% proparacaine HCl (Akorn, Inc.). Each eye was proptosed and the needle was inserted through the cornea just above the limbal region and into the anterior chamber at an angle parallel to the cornea, taking care to avoid touching the iris, anterior lens capsule epithelium, or corneal endothelium. Up to 1 μL of ANGPTL7 protein (catalog #4960-AN-025; R&D Systems, Minneapolis, MN) or PBS was injected slowly (over a 30-second period). The needle was then withdrawn. The procedure was performed on both eyes of each animal. Only one injection was administered at day 0.

Assay [2] deals with mouse eyes. The experiment in a line: Intravitreal injection of ANGPTL7 protein in mice, IOP measured over time. The format is in vivo. The method, then: as §1
A 33-gauge needle with a glass microsyringe (5-4 volume; Hamilton Company) was used. The eye was proptosed, and the needle was inserted through the equatorial sclera and inserted into the vitreous chamber at an angle of approximately 45 degrees, taking care to avoid touching the posterior part of the lens or the retina. ANGPTL7 protein (catalog #4960-AN-025; R&D Systems, Minneapolis, MN) or PBS (1 μL) was injected into the vitreous over the course of 1 minute. The needle was then left in place for a further 45 seconds (to facilitate mixing), before being rapidly withdrawn. Only one injection was administered at day 0.

B1: ANGPTL7 protein: ANGPTL7 protein (catalog #4960-AN-025; R&D Systems), murine Angptl7 protein injected into mouse eyes (protein, UniProt Q8R1Q3 22-337, looked up)
Angiopoietin-related protein 7: QKPHKRKTQLKAAGCCEEMRELKAQVANLSSLLGELSRKQESDWVSVVMQVMELESSSKHMESRLSTAESKYSEMNNQIDIMQLQAAQTVTQTSADAIYDCSSLYQKNYRISGVYKLPPDEFLGSPELEVFCDMETSGGGWTIIQRRKSGLVSFYQDWRQYKQGFGSIRGDFWLGNEHIHRLTRQPSRLRVELEDWEGNARYAEYSYFALGNELNSYRLFLGNYSGNVGKDALLYHNNTVFSTKDKDNDNCLDKCAQLRKGGYWYNCCTDSNLNGVYYRLGEHRKHMDGISWYGWHGANYSLKRVEMKIRPEAFKP
For B1, the “elevation of IOP” value with mouse eyes [1] (mice, single intracameral injection at day 0, after an initial drop, starting on day 3 until end of experiment on day 7) is 2-5 mmHg; in the assay on mouse eyes [2] (mice, single intravitreal injection at day 0, after an initial drop, starting on day 4 until end of experiment on day 7) it was 4-5 mmHg. For the same molecule, the “IOP in Angptl7-treated eyes compared to control eyes” value is reported as “elevated” with mouse eyes [1] (mouse eyes, intracameral route, after an initial drop (FIG. 6B)) and “elevated” in the assay on mouse eyes [2] (mouse eyes, intravitreal route, after an initial drop (FIG. 6A)). Further, the “elevation of IOP compared to baseline” value in the assay with mouse eyes [2] (mice, single intravitreal injection at day 0, starting on day 4 until day 7) was 22-25%.
